Test results from US20250205280A1 (Janssen / Centocor, published 2025).

Tests used:
IL1RAP on H1975 cells [1] = target: T1, IL1RAP on H1975 cells (human, UniProt Q9NPH3 21-570); assay: flow cytometry on H1975 cells, % binding; top right panel
T1 construct: whole, on cells; also called ILIRAP; H1975 tumor cell line expressing ILIRAP
T1 sequence (looked up): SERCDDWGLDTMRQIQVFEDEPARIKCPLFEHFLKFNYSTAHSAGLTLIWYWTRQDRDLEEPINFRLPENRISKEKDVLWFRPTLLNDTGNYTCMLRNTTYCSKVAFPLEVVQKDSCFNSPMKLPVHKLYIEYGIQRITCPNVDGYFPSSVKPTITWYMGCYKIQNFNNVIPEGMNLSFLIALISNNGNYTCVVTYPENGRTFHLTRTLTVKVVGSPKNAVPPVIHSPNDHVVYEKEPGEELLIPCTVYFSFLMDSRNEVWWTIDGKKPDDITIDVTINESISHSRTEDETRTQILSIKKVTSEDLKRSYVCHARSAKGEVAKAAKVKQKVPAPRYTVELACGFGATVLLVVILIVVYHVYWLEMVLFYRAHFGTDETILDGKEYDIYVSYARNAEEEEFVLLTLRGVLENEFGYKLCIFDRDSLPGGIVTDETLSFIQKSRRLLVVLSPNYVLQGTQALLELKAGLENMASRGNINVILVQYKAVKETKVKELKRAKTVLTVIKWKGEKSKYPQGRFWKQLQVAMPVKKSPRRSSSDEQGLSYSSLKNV

CD123 on Kasumi-3 cells = target: T2, CD123 on Kasumi-3 cells (UniProt P26951 19-378, limits assumed); assay: flow cytometry on Kasumi-3 cells, % binding; top left panel
T2 construct: whole, on cells; also called tumor associated antigen (TAA) on Kasumi-3

PSMA on 22Rv1 cells = target: T3, PSMA on 22Rv1 cells (human, UniProt Q04609 1-750); assay: flow cytometry on 22Rv1 cells, % binding; top middle panel
T3 construct: whole, on cells; also called 22Rv1 tumor cell line expressing PSMA

[2] = target: T4, Vβ17 (TRBV19) T cell receptor on Vβ17+CD8+ T cells (human); assay: flow cytometry on M1 peptide expanded CD8+ T cells, PE anti-human IgG4 secondary, % binding; bottom right panel, second EC50 line, square curve (right of the circles)
T4 construct: whole, on cells; also called Vβ17+ T cells
Procedure: (§1) Binding of Vβ17 bispecific antibodies to its respective tumor associated antigen (TAA) expressing cell line and CD8+ T cells was carried out by flow cytometry. Briefly, 50,000 target cells or CD8+ T cells were incubated at 4° C. for 45 minutes with serial dilutions of various bispecific antibodies or its null arm control bispecific antibodies. After washing with wash buffer (PBS+2% FBS), bispecific antibody bound to cell surface was detected by incubating the cells with PE labelled mouse anti human IgG4 secondary antibody (SouthernBiotech, Birmingham, AL) for 30 minutes at 4° C. Cells were washed with wash buffer (PBS+2% FBS) and the fluorescence of stained cells was measured on Novocyte flow cytometer. Cells were visualized on forward and sideward scatter and doublets were excluded. No secondary antibody control was used to establish background fluorescence and to gate on specific population. Background value was subtracted from main samples to get specific binding value. […] For all binding assays, tumor associated antigen (TAA) expression on cell lines and the abundance of Vβ17+ cells among Pan-T cells or CD8+ T cells were assessed by staining them with specific monoclonal antibody.
(§2) Mouse anti-human IgG4 Fc-PE secondary antibody was used to detect the bispecific antibody using FACS method.

[3] = target: T4, Vβ17 (TRBV19) T cell receptor on …; assay: flow cytometry on total (Vβ17 non-depleted) CD8+ T cells from PBMCs, % binding
Procedure: as §1

[4] = target: T4, Vβ17 (TRBV19) T cell receptor on …; assay: flow cytometry on M1 peptide expanded CD8+ T cells, PE anti-human IgG4 secondary, % binding; bottom middle panel, second EC50 line, square curve (right of the circles)
Procedure: as §1, §2

[5] = target: T4, Vβ17 (TRBV19) T cell receptor on …; assay: flow cytometry on M1 peptide expanded CD8+ T cells, PE anti-human IgG4 secondary, % binding; bottom left panel, second EC50 line, square curve (right of the circles)
Procedure: as §1, §2

[6] = target: T4, Vβ17 (TRBV19) T cell receptor on …; assay: flow cytometry on enriched M1 peptide-stimulated CD8+ T cells (day 14), frequency of positive cells, anti-human IgG4 Fc-PE
Procedure: as §1, §2

IL1RAP on H1975 cells [7] = target: T1, IL1RAP on H1975 cells; assay: flow cytometry on H1975 cells expressing IL1RAP, detected with anti-human IgG4 Fc-PE
Procedure: as §1

[8] = target: T4, Vβ17 (TRBV19) T cell receptor on …; assay: flow cytometry on M1 peptide expanded CD8+ T cells, PE anti-human IgG4 secondary, % binding; bottom right panel, first EC50 line, circle curve (left of the squares)
Procedure: as §1, §2

T4 sequence (A0A075B6N1 22-114): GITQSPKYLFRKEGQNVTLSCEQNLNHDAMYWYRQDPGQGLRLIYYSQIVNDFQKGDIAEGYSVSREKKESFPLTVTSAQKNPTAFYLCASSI
T3 sequence (Q04609 whole entry): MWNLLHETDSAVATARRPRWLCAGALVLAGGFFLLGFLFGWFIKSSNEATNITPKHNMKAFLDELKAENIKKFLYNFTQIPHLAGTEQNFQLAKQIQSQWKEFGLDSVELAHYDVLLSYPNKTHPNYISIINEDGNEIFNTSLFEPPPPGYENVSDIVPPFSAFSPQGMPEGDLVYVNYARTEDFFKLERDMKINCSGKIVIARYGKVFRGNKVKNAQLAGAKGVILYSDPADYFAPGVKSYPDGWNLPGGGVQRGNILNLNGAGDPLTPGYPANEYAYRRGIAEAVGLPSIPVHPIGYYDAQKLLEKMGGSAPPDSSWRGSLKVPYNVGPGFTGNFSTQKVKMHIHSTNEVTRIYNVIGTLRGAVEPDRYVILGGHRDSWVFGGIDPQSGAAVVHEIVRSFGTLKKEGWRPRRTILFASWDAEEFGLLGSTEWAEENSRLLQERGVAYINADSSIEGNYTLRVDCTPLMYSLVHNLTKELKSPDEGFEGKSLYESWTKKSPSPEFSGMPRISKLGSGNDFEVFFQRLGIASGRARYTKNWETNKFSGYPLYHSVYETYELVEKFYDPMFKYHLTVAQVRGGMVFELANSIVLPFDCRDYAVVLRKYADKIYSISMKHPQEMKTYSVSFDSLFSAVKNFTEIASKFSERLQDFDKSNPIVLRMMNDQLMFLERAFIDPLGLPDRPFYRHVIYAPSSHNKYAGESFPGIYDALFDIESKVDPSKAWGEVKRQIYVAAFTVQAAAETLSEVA
T2 sequence (P26951 19-378 limits assumed): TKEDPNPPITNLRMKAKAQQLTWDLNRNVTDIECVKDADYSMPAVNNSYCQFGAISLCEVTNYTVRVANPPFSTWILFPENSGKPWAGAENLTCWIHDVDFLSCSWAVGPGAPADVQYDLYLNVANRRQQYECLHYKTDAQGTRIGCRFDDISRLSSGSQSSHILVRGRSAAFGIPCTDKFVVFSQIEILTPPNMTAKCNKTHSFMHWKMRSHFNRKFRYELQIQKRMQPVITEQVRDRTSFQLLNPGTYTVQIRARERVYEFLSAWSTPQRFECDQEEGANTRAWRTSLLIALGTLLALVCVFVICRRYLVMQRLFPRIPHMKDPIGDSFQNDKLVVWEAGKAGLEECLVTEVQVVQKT

B1: Vβ17/Null (bispecific antibody, human IgG4 S228P, kappa, F234A L235A)
Vβ17 half antibody (B17B21; light chain, linker and heavy chain in one polypeptide): DIQMTQSPSSLSASVGDRVTITCRSSQSLVHSNGNTYLHWYQQKPGKAPKFLIYKVSNRFSGVPSRFSGSGSGTDFTLTISSLQPEDFATYYCSQSTHVPFTFGQGTKLEIKRTVAAPSVFIFPPSDEQLKSGTASVVCLLNNFYPREAKVQWKVDNALQSGNSQESVTEQDSKDSTYSLSSTLTLSKADYEKHKVYACEVTHQGLSSPVTKSFNRGECGGSEGKSSGSGSESKSTEGKSSGSGSESKSTGGSQVQLQESGPGLVKPSETLSLTCTVSGYSITSGYFWNWIRQPPGKGLEWIGYISYDGSNNYNPSLKSRVTISRDTSKNQFSLKLSSVTAADTAVYYCASPSPGTGYAVDYWGQGTLVTVSSASTKGPSVFPLAPCSRSTSESTAALGCLVKDYFPEPVTVSWNSGALTSGVHTFPAVLQSSGLYSLSSVVTVPSSSLGTKTYTCNVDHKPSNTKVDKRVESKYGPPCPPCPAPEAAGGPSVFLFPPKPKDTLMISRTPEVTCVVVDVSQEDPEVQFNWYVDGVEVHNAKTKPREEQFNSTYRVVSVLTVLHQDWLNGKEYKCKVSNKGLPSSIEKTISKAKGQPREPQVYTLPPSQEEMTKNQVSLSCAVKGFYPSDIAVEWESNGQPENNYKTTPPVLDSDGSFFLVSRLTVDKSRWQEGNVFSCSVMHEALHNRFTQKSLSLSLGK
null half antibody (B23B49; light chain, linker and heavy chain in one polypeptide): not shown
notes: also called Vβ17/NULL arm control bispecific antibody; Vβ17XNULL
IL1RAP on H1975 cells [1]
  binding result: no binding (tested: about 30 µg/mL)
CD123 on Kasumi-3 cells
  binding result: no binding (tested: about 5 µg/mL)
PSMA on 22Rv1 cells
  binding result: no binding (tested: 10 µg/mL)
[2]
  EC50: 2.8 nM
[3]
  EC50 (read off the curve): ~0.3 µg/mL
[4]
  EC50: 3.75 nM
[5]
  EC50: 2.4 nM

B2: Vβ17/IL1RAP bispecific antibody (bispecific antibody, human IgG4 S228P, kappa, lambda, F234A L235A)
chain 1: B1 Vβ17 half antibody (B17B21; light chain, linker and heavy chain in one polypeptide)
chain 2: QSALTQPRSVSGSPGHSVTISCTGTSSDVGDYNYVSWYQQRPGKVPKLLIYDVSKRPSGVPDRFSGSKSGNTASLTISGLQAEDEAIYFCASYAGNYNVVFGGGTKLTVLGQPKAAPSVTLFPPSSEELQANKATLVCLISDFYPGAVTVAWKADSSPVKAGVETTTPSKQSNNKYAASSYLSLTPEQWKSHRSYSCQVTHEGSTVEKTVAPTECSGGSEGKSSGSGSESKSTEGKSSGSGSESKSTGGSQVQLVQSGSELKKPGASVKVSCKASGYTFNTYAMNWVRQAPGQGLEWMGWINTNTGNPTYAQGFTGRFVFSLDTSVSTAYLQISSLKAEDTAVYYCARRYFDWLLGAFDIWGQGTMVTVSSASTKGPSVFPLAPCSRSTSESTAALGCLVKDYFPEPVTVSWNSGALTSGVHTFPAVLQSSGLYSLSSVVTVPSSSLGTKTYTCNVDHKPSNTKVDKRVESKYGPPCPPCPAPEAAGGPSVFLFPPKPKDTLMISRTPEVTCVVVDVSQEDPEVQFNWYVDGVEVHNAKTKPREEQFNSTYRVVSVLTVLHQDWLNGKEYKCKVSNKGLPSSIEKTISKAKGQPREPQVYTLPPSQEEMTKNQVSLWCLVKGFYPSDIAVEWESNGQPENNYKTTPPVLDSDGSFFLYSRLTVDKSRWQEGNVFSCSVMHEALHNHYTQKSLSLSLGK
notes: also called Vβ17XIL1RAP
[6]
  EC50: 2.8 nM
IL1RAP on H1975 cells [7]
  EC50: 11.3 nM
[8]
  EC50: 0.33 nM
